From the supplement of paper PMC10567573

B1: TBX6 (parent)
chain: AFLELPHGSGGSGYPAAPPAVPFA
B2: RAD51 (parent)
chain: RFLRMLLRLADEFGVAVVITNQVV

Variants of: B1
Assay: protein stability index of a GFP-peptide fusion (GPS, HEK-293T) (PSI 1-6); higher = more stable
Settings: c terminus: a fixed tail appended
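Note: lentivirally expressed fusions sorted by FACS into six bins by GFP to DsRed ratio, PSI derived from sequencing read proportions per bin multiplied by bin number.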

Going from AFLELPHGSGGSGYPAAPPAWPFA to AFLELPHGSGGSGYPAAPPASPFA, the protein stability index rises from 2.07 to 2.59.

Going from AFLELPHGSGGSGYPAAPPARPFA to AFLELPHGSGGSGYPAAPPAMPFA, the protein stability index falls from 2.64 to 2.36.

Going from AFLELPHGSGGSGYPAAPPANPFA to AFLELPHGSGGSGYPAAPPAYPFA, the protein stability index falls from 2.64 to 2.12.

Going from AFLELPHGSGGSGYPAAPPAVWFA to AFLELPHGSGGSGYPAAPPAVSFA, the protein stability index falls from 2.25 to 2.18.

Going from AFLELPHGSGGSGYPAAPPAVYFA to AFLELPHGSGGSGYPAAPPAVKFA, the protein stability index rises from 2.02 to 2.19.

Compared with AFLELPHGSGGSGYPAAPPAVEFA, AFLELPHGSGGSGYPAAPPAVLFA is lower in protein stability index: 2.54 for the first, 1.4 for the second.

Compared with AFLELPHGSGGSGYPAAPPAVTFA, AFLELPHGSGGSGYPAAPPAVMFA is higher in protein stability index: 1.86 for the first, 2.02 for the second.

Going from AFLELPHGSGGSGYPAAPPAVNFA to AFLELPHGSGGSGYPAAPPAVCFA, the protein stability index rises from 1.89 to 2.1.

Compared with AFLELPHGSGGSGYPAAPPAVAFA, AFLELPHGSGGSGYPAAPPAVQFA is higher in protein stability index: 2.14 for the first, 2.52 for the second.

First: AFLELPHGSGGSGYPAAPPAVGFA
Second: AFLELPHGSGGSGYPAAPPAVHFA
The protein stability index of the first is lower: 2.42 for the first, 2.46 for the second.

Going from AFLELPHGSGGSGYPAAPPAVIFA to AFLELPHGSGGSGYPAAPPAVRFA, the protein stability index rises from 1.73 to 2.3.

Compared with AFLELPHGSGGSGYPAAPPAVDFA, AFLELPHGSGGSGYPAAPPAVVFA is lower in protein stability index: 3.29 for the first, 2.16 for the second.

Compared with AFLELPHGSGGSGYPAAPPAVFFA, AFLELPHGSGGSGYPAAPPAVPFL is lower in protein stability index: 2.13 for the first, 1.6 for the second.

Compared with AFLELPHGSGGSGYPAAPPAVPFT, AFLELPHGSGGSGYPAAPPAVPFR is lower in protein stability index: 2.55 for the first, 2.54 for the second.

First: AFLELPHGSGGSGYPAAPPAVPFQ
Second: AFLELPHGSGGSGYPAAPPAVPFM
The protein stability index of the first is higher: 2.71 for the first, 2.19 for the second.

First: AFLELPHGSGGSGYPAAPPAVPFV
Second: AFLELPHGSGGSGYPAAPPAVPFG
The protein stability index of the first is lower: 2.47 for the first, 2.56 for the second.

Compared with AFLELPHGSGGSGYPAAPPAVPFC, AFLELPHGSGGSGYPAAPPAVPFW is higher in protein stability index: 1.53 for the first, 1.67 for the second.

Compared with AFLELPHGSGGSGYPAAPPAVPFN, AFLELPHGSGGSGYPAAPPAVPFY is lower in protein stability index: 2.68 for the first, 1.89 for the second.

Compared with AFLELPHGSGGSGYPAAPPAVPFF, AFLELPHGSGGSGYPAAPPAVPFD is higher in protein stability index: 1.54 for the first, 3.33 for the second.

Going from AFLELPHGSGGSGYPAAPPAVPFH to AFLELPHGSGGSGYPAAPPAVPFS, the protein stability index rises from 1.92 to 2.63.

Compared with AFLELPHGSGGSGYPAAPPAVPFE, AFLELPHGSGGSGYPAAPPAVPFK is lower in protein stability index: 3.4 for the first, 2.55 for the second.

Going from AFLELPHGSGGSGYPAAPPAVPFI to AFLELPHGSGGSGYPAAPPAVPRA, the protein stability index rises from 2.23 to 3.3.

Going from AFLELPHGSGGSGYPAAPPAVPDA to AFLELPHGSGGSGYPAAPPAVPVA, the protein stability index falls from 4.19 to 2.89.

First: AFLELPHGSGGSGYPAAPPAVPNA
Second: AFLELPHGSGGSGYPAAPPAVPCA
The protein stability index of the first is higher: 3.76 for the first, 3.36 for the second.

Going from AFLELPHGSGGSGYPAAPPAVPMA to AFLELPHGSGGSGYPAAPPAVPHA, the protein stability index rises from 2.62 to 3.05.

Going from AFLELPHGSGGSGYPAAPPAVPYA to AFLELPHGSGGSGYPAAPPAVPEA, the protein stability index rises from 2.42 to 3.56.

Going from AFLELPHGSGGSGYPAAPPAVPLA to AFLELPHGSGGSGYPAAPPAVPQA, the protein stability index rises from 2.35 to 3.7.

Compared with AFLELPHGSGGSGYPAAPPAVPKA, AFLELPHGSGGSGYPAAPPAVPTA is lower in protein stability index: 3.38 for the first, 3 for the second.

First: AFLELPHGSGGSGYPAAPPAVPSA
Second: AFLELPHGSGGSGYPAAPPAVPGA
The protein stability index of the first is lower: 3.21 for the first, 3.72 for the second.

First: AFLELPHGSGGSGYPAAPPAVPWA
Second: AFLELPHGSGGSGYPAAPPAVPAA
The protein stability index of the first is lower: 2.18 for the first, 3.48 for the second.

In the case of AFLELPHGSGGSGYPAAPPAVPIA, the protein stability index is reported as 2.52.

Variants of: B2
Assay: as above
Settings: c terminus: a fixed tail appended

First: RLLRMLLRLADEFGVAVVITNQVV
Second: RMLRMLLRLADEFGVAVVITNQVV
The protein stability index of the first is lower: 1.6 for the first, 2.29 for the second.

First: RCLRMLLRLADEFGVAVVITNQVV
Second: RILRMLLRLADEFGVAVVITNQVV
The protein stability index of the first is lower: 1.75 for the first, 2.4 for the second.

First: RPLRMLLRLADEFGVAVVITNQVV
Second: RELRMLLRLADEFGVAVVITNQVV
The protein stability index of the first is higher: 2.89 for the first, 1.51 for the second.

First: RALRMLLRLADEFGVAVVITNQVV
Second: RRLRMLLRLADEFGVAVVITNQVV
The protein stability index of the first is higher: 1.89 for the first, 1.7 for the second.

Compared with RKLRMLLRLADEFGVAVVITNQVV, RDLRMLLRLADEFGVAVVITNQVV is higher in protein stability index: 1.39 for the first, 2.27 for the second.

First: RNLRMLLRLADEFGVAVVITNQVV
Second: RHLRMLLRLADEFGVAVVITNQVV
The protein stability index of the first is higher: 2.1 for the first, 1.78 for the second.

Going from RGLRMLLRLADEFGVAVVITNQVV to RQLRMLLRLADEFGVAVVITNQVV, the protein stability index rises from 1.75 to 2.22.

Going from IFLRMLLRLADEFGVAVVITNQVV to AFLRMLLRLADEFGVAVVITNQVV, the protein stability index falls from 2.9 to 1.62.

First: VFLRMLLRLADEFGVAVVITNQVV
Second: KFLRMLLRLADEFGVAVVITNQVV
The protein stability index of the first is lower: 1.52 for the first, 2.54 for the second.

Going from CFLRMLLRLADEFGVAVVITNQVV to DFLRMLLRLADEFGVAVVITNQVV, the protein stability index falls from 2.23 to 2.

First: QFLRMLLRLADEFGVAVVITNQVV
Second: LFLRMLLRLADEFGVAVVITNQVV
The protein stability index of the first is lower: 1.79 for the first, 2.12 for the second.

Going from PFLRMLLRLADEFGVAVVITNQVV to YFLRMLLRLADEFGVAVVITNQVV, the protein stability index rises from 2.08 to 2.8.

First: EFLRMLLRLADEFGVAVVITNQVV
Second: TFLRMLLRLADEFGVAVVITNQVV
The protein stability index of the first is higher: 2.06 for the first, 1.37 for the second.

Going from MFLRMLLRLADEFGVAVVITNQVV to WFLRMLLRLADEFGVAVVITNQVV, the protein stability index rises from 2.43 to 3.

Compared with SFLRMLLRLADEFGVAVVITNQVV, FFLRMLLRLADEFGVAVVITNQVV is lower in protein stability index: 2.27 for the first, 1.92 for the second.

First: NFLRMLLRLADEFGVAVVITNQVV
Second: GFLRMLLRLADEFGVAVVITNQVV
The protein stability index of the first is higher: 2.71 for the first, 2.51 for the second.

For HFLRMLLRLADEFGVAVVITNQVV, the protein stability index was 1.78.
